The results in this text go back to US20140005241 (The Curators of the University of Missouri, published 2014).

This data set deals with SARS-CoV nsp13 helicase (SARS coronavirus, UniProt P0C6X7 P0C6X7:5302-5902). Briefly: EMSA. Conditions: tags: GST (baculovirus) or His6; label: 5'-Cy3; 20 nt 5' overhang, 40 bp duplex.

B1: 60/40-mer (20ss:40ds) DNA (dsDNA)
DNA 1: TAGATAGCATTAGATAGCCACAGATAGCATCCTAGATAGCATTGGTGCTCGAACAGTGAC
DNA 2: GTCACTGTTCGAGCACCAATGCTATCTAGGATGCTATCTG
On to B1, for which the binding result was “binds”.
